Protein stability index data for 94 variants are collected here from the supplement of paper PMC10567573.

To fix the notation:
B1: FBXO3 (parent)
chain: GGFPIIRDQIFRYVHDPECVATTG
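Further: lentivirally expressed fusions sorted by FACS into six bins by GFP to DsRed ratio, PSI derived from sequencing read proportions per bin multiplied by bin number.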

Variants of B1 are the subject of this data set. Nature of the data set: protein stability index of a GFP-peptide fusion (GPS, HEK-293T) (PSI 1-6); higher = more stable. To be noted: c terminus: a fixed tail appended.
Consider GGFPIIRDQVFRYVHDPECVATTG [I10V], for which the protein stability index is 2.36.

GGFPIIRDQPFRYVHDPECVATTG [I10P]: the protein stability index came out at 2.6.

On to GGFPIIRDQRFRYVHDPECVATTG [I10R], for which the protein stability index was found to be 2.17.

With GGFPIIRDQKFRYVHDPECVATTG [I10K], the protein stability index worked out at 3.07.

As for GGFPIIRDQWFRYVHDPECVATTG [I10W], the protein stability index came to 1.74.

Take GGFPIIRDQLFRYVHDPECVATTG [I10L]: the protein stability index turned out to be 2.17.

GGFPIIRDQDFRYVHDPECVATTG [I10D]: the protein stability index was 3.6.

Consider GGFPIIRDQQFRYVHDPECVATTG [I10Q], for which the protein stability index amounted to 2.75.

Regarding GGFPIIRDQHFRYVHDPECVATTG [I10H], the protein stability index came out at 3.27.

On to GGFPIIRDQSFRYVHDPECVATTG [I10S], for which the protein stability index stood at 3.22.

GGFPIIRDQAFRYVHDPECVATTG [I10A]: the protein stability index came to 2.38.

For GGFPIIRDQEFRYVHDPECVATTG [I10E], the protein stability index stood at 3.66.

With GGFPIIRDQNFRYVHDPECVATTG [I10N], the protein stability index worked out at 3.3.

In the case of GGFPIIRDQFFRYVHDPECVATTG [I10F], the protein stability index was found to be 2.13.

For the variant GGFPIIRDQYFRYVHDPECVATTG [I10Y], the protein stability index was 2.57.

On to GGFPIIRDQCFRYVHDPECVATTG [I10C], for which the protein stability index was determined as 2.19.

For GGFPIIRDQGFRYVHDPECVATTG [I10G], the protein stability index is 2.04.

Regarding GGFPIIRDQMFRYVHDPECVATTG [I10M], the protein stability index turned out to be 2.44.

As for GGFPIIRDQTFRYVHDPECVATTG [I10T], the protein stability index was 2.54.

For GGFPIIRDQIMRYVHDPECVATTG [F11M], the protein stability index came out at 2.78.

As for GGFPIIRDQIHRYVHDPECVATTG [F11H], the protein stability index was 4.01.

For GGFPIIRDQIDRYVHDPECVATTG [F11D], the protein stability index turned out to be 3.94.

Take GGFPIIRDQIARYVHDPECVATTG [F11A]: the protein stability index is 3.59.

Take GGFPIIRDQIWRYVHDPECVATTG [F11W]: the protein stability index was determined as 1.9.

For GGFPIIRDQISRYVHDPECVATTG [F11S], the protein stability index came to 3.45.

As for GGFPIIRDQINRYVHDPECVATTG [F11N], the protein stability index came to 3.67.

Take GGFPIIRDQITRYVHDPECVATTG [F11T]: the protein stability index turned out to be 3.35.

For GGFPIIRDQIQRYVHDPECVATTG [F11Q], the protein stability index amounted to 3.1.

As to GGFPIIRDQIERYVHDPECVATTG [F11E], the protein stability index came out at 3.58.

Turning to GGFPIIRDQIYRYVHDPECVATTG [F11Y], the protein stability index was determined as 2.76.

On to GGFPIIRDQIGRYVHDPECVATTG [F11G], for which the protein stability index amounted to 3.48.

Regarding GGFPIIRDQIKRYVHDPECVATTG [F11K], the protein stability index was 2.85.

Consider GGFPIIRDQILRYVHDPECVATTG [F11L], for which the protein stability index was 3.02.

Regarding GGFPIIRDQICRYVHDPECVATTG [F11C], the protein stability index was determined as 2.92.

As to GGFPIIRDQIIRYVHDPECVATTG [F11I], the protein stability index came out at 2.45.

Take GGFPIIRDQIRRYVHDPECVATTG [F11R]: the protein stability index was 2.89.

As for GGFPIIRDQIVRYVHDPECVATTG [F11V], the protein stability index was found to be 3.18.

For GGFPIIRDQIPRYVHDPECVATTG [F11P], the protein stability index is 3.38.

On to GGFPIIRTQIFRYVHDPECVATTG [D8T], for which the protein stability index was 1.24.

Consider GGFPIIRYQIFRYVHDPECVATTG [D8Y], for which the protein stability index came out at 3.32.

Regarding GGFPIIRKQIFRYVHDPECVATTG [D8K], the protein stability index was 2.39.

In the case of GGFPIIRAQIFRYVHDPECVATTG [D8A], the protein stability index was 2.14.

GGFPIIRSQIFRYVHDPECVATTG [D8S]: the protein stability index was 1.61.

For GGFPIIRQQIFRYVHDPECVATTG [D8Q], the protein stability index is 1.7.

GGFPIIRIQIFRYVHDPECVATTG [D8I]: the protein stability index came out at 3.17.

As to GGFPIIRPQIFRYVHDPECVATTG [D8P], the protein stability index worked out at 1.27.

Consider GGFPIIRRQIFRYVHDPECVATTG [D8R], for which the protein stability index is 3.49.

For GGFPIIRNQIFRYVHDPECVATTG [D8N], the protein stability index turned out to be 1.54.

Regarding GGFPIIREQIFRYVHDPECVATTG [D8E], the protein stability index turned out to be 1.52.

Regarding GGFPIIRVQIFRYVHDPECVATTG [D8V], the protein stability index is 2.54.

Regarding GGFPIIVDQIFRYVHDPECVATTG [R7V], the protein stability index came out at 1.73.

For GGFPIIWDQIFRYVHDPECVATTG [R7W], the protein stability index worked out at 2.21.

Consider GGFPIIYDQIFRYVHDPECVATTG [R7Y], for which the protein stability index worked out at 1.87.

In the case of GGFPIIRDQIFFYVHDPECVATTG [R12F], the protein stability index was 1.92.

As for GGFPIIRDQIFGYVHDPECVATTG [R12G], the protein stability index was 3.12.

Regarding GGFPIIRDQIFMYVHDPECVATTG [R12M], the protein stability index came to 1.35.

In the case of GGFPIIRDQIFWYVHDPECVATTG [R12W], the protein stability index amounted to 1.58.

GGFPIIRDQIFTYVHDPECVATTG [R12T]: the protein stability index came to 2.21.

As to GGFPIIRDQIFSYVHDPECVATTG [R12S], the protein stability index worked out at 2.89.

Regarding GGFPIIRDQIFQYVHDPECVATTG [R12Q], the protein stability index is 2.79.

Regarding GGFPIIRDQIFKYVHDPECVATTG [R12K], the protein stability index worked out at 2.67.

Turning to GGFPIIRDQIFEYVHDPECVATTG [R12E], the protein stability index stood at 3.39.

GGFPIIRDQIFDYVHDPECVATTG [R12D]: the protein stability index amounted to 3.21.

GGFPIIRDQIFHYVHDPECVATTG [R12H]: the protein stability index was found to be 2.69.

GGFPIIRDQIFLYVHDPECVATTG [R12L]: the protein stability index turned out to be 1.64.

Consider GGFPIIRDQIFIYVHDPECVATTG [R12I], for which the protein stability index worked out at 2.63.

For GGFPIIRDQIFPYVHDPECVATTG [R12P], the protein stability index is 2.82.

In the case of GGFPIIRDQIFCYVHDPECVATTG [R12C], the protein stability index was 1.75.

With GGFPIIRDQIFNYVHDPECVATTG [R12N], the protein stability index was determined as 3.01.

On to GGFPIIRDQIFAYVHDPECVATTG [R12A], for which the protein stability index amounted to 2.3.

As to GGFPIIRDQIFVYVHDPECVATTG [R12V], the protein stability index is 1.22.

For the variant GGFPIIRDQIFYYVHDPECVATTG [R12Y], the protein stability index is 1.64.

Take GGFPIIRDSIFRYVHDPECVATTG [Q9S]: the protein stability index was 1.8.

As for GGFPIIRDNIFRYVHDPECVATTG [Q9N], the protein stability index amounted to 2.29.

Consider GGFPIIRDHIFRYVHDPECVATTG [Q9H], for which the protein stability index was 1.64.

For GGFPIIRDYIFRYVHDPECVATTG [Q9Y], the protein stability index stood at 2.13.

Take GGFPIIRDCIFRYVHDPECVATTG [Q9C]: the protein stability index was found to be 1.87.

Consider GGFPIIRDVIFRYVHDPECVATTG [Q9V], for which the protein stability index was 2.95.

For the variant GGFPIIRDRIFRYVHDPECVATTG [Q9R], the protein stability index was determined as 2.18.

On to GGFPIIRDTIFRYVHDPECVATTG [Q9T], for which the protein stability index is 1.58.

Regarding GGFPIIRDDIFRYVHDPECVATTG [Q9D], the protein stability index amounted to 2.83.

For the variant GGFPIIRDIIFRYVHDPECVATTG [Q9I], the protein stability index was 1.9.

As to GGFPIIRDLIFRYVHDPECVATTG [Q9L], the protein stability index stood at 2.08.

For GGFPIIRDEIFRYVHDPECVATTG [Q9E], the protein stability index was 2.09.

Consider GGFPIIRDGIFRYVHDPECVATTG [Q9G], for which the protein stability index is 1.75.

Consider GGFPIIRDWIFRYVHDPECVATTG [Q9W], for which the protein stability index is 2.29.

On to GGFPIIRDKIFRYVHDPECVATTG [Q9K], for which the protein stability index is 1.75.

Turning to GGFPIIRDFIFRYVHDPECVATTG [Q9F], the protein stability index worked out at 2.43.

With GGFPIIRDPIFRYVHDPECVATTG [Q9P], the protein stability index was 2.65.

Consider GGFPIIRDAIFRYVHDPECVATTG [Q9A], for which the protein stability index came out at 2.13.

Regarding GGFPIIRDQIFRCVHDPECVATTG [Y13C], the protein stability index is 2.32.

Consider GGFPIIRDQIFREVHDPECVATTG [Y13E], for which the protein stability index was 3.96.

For GGFPIIRDQIFRAVHDPECVATTG [Y13A], the protein stability index stood at 3.44.

For GGFPIIRDQIFRDVHDPECVATTG [Y13D], the protein stability index worked out at 3.85.
